Legend:
[1] = molecular target: T1, Cin5 (Saccharomyces cerevisiae) (UniProt P40917); conditions: 100 nM
T1 sequence: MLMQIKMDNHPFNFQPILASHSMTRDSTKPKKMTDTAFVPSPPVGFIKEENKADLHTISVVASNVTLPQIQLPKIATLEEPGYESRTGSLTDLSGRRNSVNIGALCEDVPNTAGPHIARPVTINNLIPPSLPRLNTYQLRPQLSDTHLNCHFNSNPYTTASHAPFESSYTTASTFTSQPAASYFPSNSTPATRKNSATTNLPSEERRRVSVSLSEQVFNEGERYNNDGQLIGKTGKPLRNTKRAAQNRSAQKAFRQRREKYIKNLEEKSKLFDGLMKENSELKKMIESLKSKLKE

[2] = molecular target: T2, Yap3 (Saccharomyces cerevisiae) (UniProt P38749); conditions: 100 nM
T2 sequence: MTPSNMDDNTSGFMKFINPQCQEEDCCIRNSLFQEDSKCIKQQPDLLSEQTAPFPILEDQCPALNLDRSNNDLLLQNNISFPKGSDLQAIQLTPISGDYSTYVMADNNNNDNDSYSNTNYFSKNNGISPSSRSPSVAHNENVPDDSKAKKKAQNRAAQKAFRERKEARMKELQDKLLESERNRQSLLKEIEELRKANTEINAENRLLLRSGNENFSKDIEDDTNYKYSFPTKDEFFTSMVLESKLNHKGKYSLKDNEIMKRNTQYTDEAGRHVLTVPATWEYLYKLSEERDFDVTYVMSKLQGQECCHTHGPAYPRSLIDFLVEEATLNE

[3] = molecular target: T3, Sut1 (Saccharomyces cerevisiae) (UniProt P53032); conditions: 200 nM
T3 sequence: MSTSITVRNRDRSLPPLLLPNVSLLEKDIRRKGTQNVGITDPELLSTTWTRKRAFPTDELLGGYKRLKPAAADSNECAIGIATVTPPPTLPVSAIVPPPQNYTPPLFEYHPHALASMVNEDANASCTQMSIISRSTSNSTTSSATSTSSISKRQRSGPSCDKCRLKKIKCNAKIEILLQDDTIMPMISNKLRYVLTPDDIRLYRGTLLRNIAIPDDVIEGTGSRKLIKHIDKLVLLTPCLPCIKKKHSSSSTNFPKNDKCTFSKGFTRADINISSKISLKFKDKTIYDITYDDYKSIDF

[4] = molecular target: T4, Yer184c (Saccharomyces cerevisiae) (UniProt P39961); conditions: 100 nM
T4 sequence: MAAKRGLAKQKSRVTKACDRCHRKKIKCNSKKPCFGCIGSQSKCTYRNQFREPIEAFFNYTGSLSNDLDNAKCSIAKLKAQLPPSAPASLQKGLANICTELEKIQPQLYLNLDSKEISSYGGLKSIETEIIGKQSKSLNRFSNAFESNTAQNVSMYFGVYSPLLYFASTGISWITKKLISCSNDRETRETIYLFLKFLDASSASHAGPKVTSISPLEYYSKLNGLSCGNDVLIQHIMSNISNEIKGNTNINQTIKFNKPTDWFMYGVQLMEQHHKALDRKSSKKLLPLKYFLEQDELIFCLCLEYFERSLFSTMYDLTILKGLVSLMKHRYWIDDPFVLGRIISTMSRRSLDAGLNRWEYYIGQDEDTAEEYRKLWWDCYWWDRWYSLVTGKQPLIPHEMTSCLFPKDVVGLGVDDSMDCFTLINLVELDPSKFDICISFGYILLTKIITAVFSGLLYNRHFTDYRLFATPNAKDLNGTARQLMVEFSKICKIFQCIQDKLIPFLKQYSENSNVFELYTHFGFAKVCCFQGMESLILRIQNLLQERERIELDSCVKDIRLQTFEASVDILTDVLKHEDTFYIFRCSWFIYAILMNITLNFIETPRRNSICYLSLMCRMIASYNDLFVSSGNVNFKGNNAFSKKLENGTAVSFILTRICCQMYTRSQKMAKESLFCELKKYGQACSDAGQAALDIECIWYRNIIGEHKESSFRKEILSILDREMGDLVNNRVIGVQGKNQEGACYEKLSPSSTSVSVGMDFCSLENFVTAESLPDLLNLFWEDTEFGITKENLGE

[5] = molecular target: T5, Cad1 (Saccharomyces cerevisiae) (UniProt P24813); conditions: 100 nM
T5 sequence: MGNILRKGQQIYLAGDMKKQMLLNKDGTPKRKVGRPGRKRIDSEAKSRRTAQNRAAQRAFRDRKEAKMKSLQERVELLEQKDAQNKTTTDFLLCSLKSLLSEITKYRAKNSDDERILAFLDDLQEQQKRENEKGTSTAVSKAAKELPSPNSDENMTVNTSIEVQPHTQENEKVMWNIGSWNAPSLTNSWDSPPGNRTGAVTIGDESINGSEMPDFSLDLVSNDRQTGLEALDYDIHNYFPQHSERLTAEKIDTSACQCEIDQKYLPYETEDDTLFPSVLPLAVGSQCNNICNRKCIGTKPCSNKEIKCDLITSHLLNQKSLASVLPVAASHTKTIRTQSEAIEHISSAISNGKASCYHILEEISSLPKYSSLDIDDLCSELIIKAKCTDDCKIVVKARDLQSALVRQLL

[6] = molecular target: T6, Sko1 (Saccharomyces cerevisiae) (UniProt Q02100); conditions: 200 nM
T6 sequence: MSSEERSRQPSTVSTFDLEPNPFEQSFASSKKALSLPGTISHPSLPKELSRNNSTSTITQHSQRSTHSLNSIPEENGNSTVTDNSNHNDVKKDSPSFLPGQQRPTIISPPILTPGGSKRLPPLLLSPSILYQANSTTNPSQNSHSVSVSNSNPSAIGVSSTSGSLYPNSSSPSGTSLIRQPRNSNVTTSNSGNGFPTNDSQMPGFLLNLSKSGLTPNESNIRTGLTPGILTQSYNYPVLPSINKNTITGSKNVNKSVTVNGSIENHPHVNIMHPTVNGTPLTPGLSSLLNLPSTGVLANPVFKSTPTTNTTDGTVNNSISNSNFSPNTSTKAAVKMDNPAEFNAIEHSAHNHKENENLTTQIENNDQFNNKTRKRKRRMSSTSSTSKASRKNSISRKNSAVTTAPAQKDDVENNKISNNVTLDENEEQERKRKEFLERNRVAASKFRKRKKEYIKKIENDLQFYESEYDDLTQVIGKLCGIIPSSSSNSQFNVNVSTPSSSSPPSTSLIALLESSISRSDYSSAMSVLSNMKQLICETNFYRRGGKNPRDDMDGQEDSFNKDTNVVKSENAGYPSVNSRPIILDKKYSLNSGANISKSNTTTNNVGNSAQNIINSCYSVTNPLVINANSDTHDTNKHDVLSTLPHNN

[7] = molecular target: T7, Pdr3 (Saccharomyces cerevisiae) (UniProt P33200); conditions: 200 nM
T7 sequence: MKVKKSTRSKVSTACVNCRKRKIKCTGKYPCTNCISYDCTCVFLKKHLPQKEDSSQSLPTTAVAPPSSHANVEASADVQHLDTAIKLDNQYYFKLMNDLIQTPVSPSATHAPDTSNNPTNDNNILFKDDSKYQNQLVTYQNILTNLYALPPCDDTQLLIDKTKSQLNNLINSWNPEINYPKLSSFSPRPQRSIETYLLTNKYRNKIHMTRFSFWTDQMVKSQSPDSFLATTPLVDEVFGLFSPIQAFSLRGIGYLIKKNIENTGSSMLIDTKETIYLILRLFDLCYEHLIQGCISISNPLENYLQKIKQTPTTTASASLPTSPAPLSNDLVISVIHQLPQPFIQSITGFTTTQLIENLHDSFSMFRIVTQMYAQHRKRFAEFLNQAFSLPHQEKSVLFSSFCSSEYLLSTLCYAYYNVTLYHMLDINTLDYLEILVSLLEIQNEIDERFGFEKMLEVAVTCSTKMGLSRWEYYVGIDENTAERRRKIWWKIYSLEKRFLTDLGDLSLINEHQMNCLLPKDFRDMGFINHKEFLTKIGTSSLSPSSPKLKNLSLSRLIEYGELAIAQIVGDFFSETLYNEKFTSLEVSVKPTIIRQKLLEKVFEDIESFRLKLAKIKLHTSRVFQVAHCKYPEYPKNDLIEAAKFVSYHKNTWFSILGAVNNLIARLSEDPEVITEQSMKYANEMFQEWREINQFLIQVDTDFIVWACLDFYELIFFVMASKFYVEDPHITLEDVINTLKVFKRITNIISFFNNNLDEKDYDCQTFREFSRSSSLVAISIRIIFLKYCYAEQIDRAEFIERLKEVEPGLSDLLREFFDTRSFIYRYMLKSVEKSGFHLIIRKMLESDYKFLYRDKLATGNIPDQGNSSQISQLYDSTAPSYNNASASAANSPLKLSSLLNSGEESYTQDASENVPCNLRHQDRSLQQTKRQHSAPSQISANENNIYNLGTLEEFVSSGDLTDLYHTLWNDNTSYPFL

Sequence | binding signal (PBM E-score (-0.5 to 0.5)) [2] | binding signal (PBM E-score (-0.5 to 0.5)) [5] | also measured
ACGTAATC (double strand) [8-mer ACGTAATC] | 0.462 |  | binding signal (PBM E-score (-0.5 to 0.5)) [1]: 0.496
ACTCCGGA (double strand) [8-mer ACTCCGGA] |  |  | binding signal (PBM E-score (-0.5 to 0.5)) [3]: 0.495; binding signal (PBM E-score (-0.5 to 0.5)) [4]: 0.459
ATTAATAA (double strand) [8-mer ATTAATAA] |  | 0.46 | 
ATTACGTA (double strand) [8-mer ATTACGTA] | 0.478 |  | binding signal (PBM E-score (-0.5 to 0.5)) [1]: 0.49; binding signal (PBM E-score (-0.5 to 0.5)) [6]: 0.497
ATTACTAA (double strand) [8-mer ATTACTAA] | 0.479 | 0.492 | 
ATTAGTAA (double strand) [8-mer ATTAGTAA] | 0.487 | 0.49 | 
ATTAGTCA (double strand) [8-mer ATTAGTCA] |  | 0.491 | 
ATTTGTCA (double strand) [8-mer ATTTGTCA] |  | 0.465 | 
CTGACTAA (double strand) [8-mer CTGACTAA] |  | 0.488 | 
CTTACTAA (double strand) [8-mer CTTACTAA] |  | 0.484 | 
CTTAGTAA (double strand) [8-mer CTTAGTAA] |  | 0.471 | 
TCCGCGGA (double strand) [8-mer TCCGCGGA] |  |  | binding signal (PBM E-score (-0.5 to 0.5)) [7]: 0.5; binding signal (PBM E-score (-0.5 to 0.5)) [4]: 0.481
TTACGTAA (double strand) [8-mer TTACGTAA] | 0.496 | 0.48 | binding signal (PBM E-score (-0.5 to 0.5)) [1]: 0.497; binding signal (PBM E-score (-0.5 to 0.5)) [6]: 0.496
TTCCGGAA (double strand) [8-mer TTCCGGAA] |  |  | binding signal (PBM E-score (-0.5 to 0.5)) [7]: 0.492; binding signal (PBM E-score (-0.5 to 0.5)) [4]: 0.467

Source: paper PMC3334620
